Patent US20260097113A1 (Pfizer, published 2026)
Changes are numbered by the printed parent chain.

Columns and labels:
[1] = biological target: RSV A + RSV B bivalent composition (RSV subtype A; RSV subtype B); assay: AM14 Fab titration by SEC; Target cycle; 1 M 25°C
[2] = biological target: RSV A + RSV B bivalent composition (RSV subtype A; RSV subtype B); assay: AM14 Fab titration by SEC; High-Slow 2 cycle; 1 M 25°C
[3] = biological target: RSV A + RSV B bivalent composition (RSV subtype A; RSV subtype B); assay: AM14 Fab titration by SEC; composition of Table 17; Pre-lyo Prep 1, T0 (second value)
[4] = biological target: RSV A + RSV B bivalent composition (RSV subtype A; RSV subtype B); assay: AM14 Fab titration by SEC; Low-Fast cycle; 1 M 2-8°C (second value)
[5] = biological target: RSV A + RSV B bivalent composition (RSV subtype A; RSV subtype B); assay: AM14 Fab titration by SEC; composition of Table 14; Annealing Temp Aggressive cycle
[6] = biological target: T1, RSV F protein of subtype A comprising a polypeptide of SEQ ID NO: 1 and a polypeptide of SEQ ID NO: 2 (RSV subtype A, UniProt P11209 137-513; P03420 26-109); assay: AM14 ELISA; F19 (pH 7, 50 mM NaCl, 3% trehalose + 3% mannitol); 2 wk 25°C
T1 construct: Stabilized prefusion F trimer made of three F2-F1 heterodimers; Produced recombinantly in CHO cells; also called RSV A; RSVA
T1 chain 1: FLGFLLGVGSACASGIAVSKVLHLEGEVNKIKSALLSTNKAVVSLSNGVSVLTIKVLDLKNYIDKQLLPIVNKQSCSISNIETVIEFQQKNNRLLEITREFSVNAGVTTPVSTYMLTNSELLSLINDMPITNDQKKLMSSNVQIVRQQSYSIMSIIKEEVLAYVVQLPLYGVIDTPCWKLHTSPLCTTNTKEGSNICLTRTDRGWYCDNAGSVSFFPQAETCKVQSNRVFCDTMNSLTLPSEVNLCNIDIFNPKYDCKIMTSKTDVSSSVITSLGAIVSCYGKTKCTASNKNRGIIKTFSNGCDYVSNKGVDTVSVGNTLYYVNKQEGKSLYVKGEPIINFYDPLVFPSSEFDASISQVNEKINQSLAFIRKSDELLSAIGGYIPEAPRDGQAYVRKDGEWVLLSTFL
T1 chain 2: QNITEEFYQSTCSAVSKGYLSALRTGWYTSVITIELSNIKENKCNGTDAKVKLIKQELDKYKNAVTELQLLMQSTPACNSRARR

[7] = biological target: T1, RSV F protein of subtype A comprising a …; assay: AM14 ELISA; F9 (pH 8, 50 mM NaCl, 4.5% sucrose); 2 wk 25°C
[8] = biological target: T1, RSV F protein of subtype A comprising a …; assay: AM14 ELISA; F9 (pH 8, 50 mM NaCl, 4.5% sucrose); 1 wk 25°C
[9] = biological target: T2, RSV F protein comprising a polypeptide of SEQ ID NO: 3 and a polypeptide of SEQ ID NO: 4 (RSV subtype B, UniProt O36634 137-513; O36634 26-109); assay: AM14 prefusion assay relative to standard; RSV B 480 µg/mL, 2% sucrose + 4% mannitol; pre-lyo
T2 construct: also called RSV B; RSVB
T2 chain 1: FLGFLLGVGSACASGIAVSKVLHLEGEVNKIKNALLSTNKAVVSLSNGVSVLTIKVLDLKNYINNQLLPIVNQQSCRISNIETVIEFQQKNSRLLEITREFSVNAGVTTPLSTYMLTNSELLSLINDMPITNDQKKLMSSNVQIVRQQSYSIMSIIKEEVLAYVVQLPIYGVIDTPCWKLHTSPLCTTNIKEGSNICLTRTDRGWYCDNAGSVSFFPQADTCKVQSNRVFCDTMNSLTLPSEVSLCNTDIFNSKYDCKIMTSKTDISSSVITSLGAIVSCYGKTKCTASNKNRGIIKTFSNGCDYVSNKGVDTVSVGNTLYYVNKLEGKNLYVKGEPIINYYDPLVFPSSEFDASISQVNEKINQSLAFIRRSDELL
T2 chain 2: T1 chain 2 with K17R, L20F, N42T, A49T, S74N, S80N

[10] = biological target: T1, RSV F protein of subtype A comprising a …; assay: AM14 ELISA; F12 (pH 8, 100 mM NaCl, 9.0% sucrose); 2 wk 25°C
[11] = biological target: T1, RSV F protein of subtype A comprising a …; assay: AM14 ELISA; F16 (pH 6, 0 mM NaCl, 0% sucrose); 1 wk 5°C
[12] = biological target: T1, RSV F protein of subtype A comprising a …; assay: AM14 ELISA; F12 (pH 8, 100 mM NaCl, 9.0% sucrose); 1 wk 5°C
[13] = biological target: T1, RSV F protein of subtype A comprising a …; assay: AM14 ELISA; F3 (pH 8, 0 mM NaCl, 9% sucrose); 1 wk 25°C
[14] = biological target: T1, RSV F protein of subtype A comprising a …; assay: AM14 ELISA; F10 (pH 7, 50 mM NaCl, 4.5% sucrose); 1 wk 5°C

AM14 Fab gave a Prefusion Content (%) [1] of 65%, a Prefusion Content (%) [2] of 72% and a Prefusion Content (%) [3] of 84%. For the same molecule, the Prefusion Content (%) [4] was 53% and the Prefusion Content (%) [5] was 70%.

B1: AM14 (trimeric prefusion specific antibody of the AM14 ELISA) (antibody, V domains shown)
VH: EVQLVESGGGVVQPGRSLRLSCAASGFSFSHYAMHWVRQAPGKGLEWVAVISYDGENTYYADSVKGRFSISRDNSKNTVSLQMNSLRPEDTALYYCARDRIVDDYYYYGMDVWGQGATVTVSS
VL: DIQMTQSPSSLSASVGDRVTITCQASQDIKKYLNWYHQKPGKVPELLMHDASNLETGVPSRFSGRGSGTDFTLTISSLQPEDIGTYYCQQYDNLPPLTFGGGTKVEIKR
notes: Antibody as used in the AM14 ELISA, detected with an HRP-labeled secondary antibody
With B1 the “AM14 prefusion content (%), relative to standard” value [6] was 84%, the “AM14 prefusion content (%), relative to standard” value [7] was 60% and the “AM14 prefusion content (%), relative to standard” value [8] was 84%. The “AM14 prefusion content (%), relative to standard” value [9] was 90%, the “AM14 prefusion content (%), relative to standard” value [10] was 55% and the “AM14 prefusion content (%), relative to standard” value [11] was 65%. For the same molecule, the “AM14 prefusion content (%), relative to standard” value [12] was 98%, the “AM14 prefusion content (%), relative to standard” value [13] was 81% and the “AM14 prefusion content (%), relative to standard” value [14] was 93%.
